The target in data set [1] is T1, Nucleolin (MBP fusion, lacking N-terminal acidic stretches domain) (Homo sapiens, UniProt P19338 P19338:284-710). In words: EMSA; random single-stranded control. As to conditions: label: 32P, no quadruplex. As for the experimental part:
(§1) In the assays, recombinant nucleolin (˜250 nM), which was fused to maltose binding protein and had the sequence under accession number NM_{—}005381 without the N-terminal acidic stretches domain, was incubated with each of the two ³²P-labeled nucleic acid ligands (10 or 250 nM). Nucleolin and the nucleic acid ligand were incubated in the presence or absence of a test compound of Formula A-1, B-1, C-6 or C-7 in an incubation buffer (12.5 mM Tris, pH 7.6, 60 mM KCl, 1 mM MgCl₂, 0.1 mM EDTA, 1 mM DTT, 5% glycerol, 0.1 mg/ml BSA) for 30 minutes at room temperature. Structures for A-1 and B-1 are shown above and structures for C-6 and C-7 are shown hereafter: The resulting complexes were separated on a 6% DNA retardation gel using 0.5× TBE with 20 mM KCl as a running buffer (i.e., electrophoresis mobility shift assay (EMSA)).
The assay also was conducted using nucleic acid ligands derived from human ribosomal DNA. Sequences of these nucleic acids are shown in the preceding example. It was determined from these assays that compound A-1, but not Actinomycin D, interfered with nucleolin/nucleic acid ligand interactions. […] A “+” represents the weakest nucleolin affinity and least interference by compound A-1 and a “++++” represents the strongest nucleolin affinity and greatest interference by compound A-1.
(In EMSA bound probe runs differently from free probe, usually more slowly.)

In data set [2] the target is T1, Nucleolin (MBP fusion, lacking …). Briefly: filter; Bmax 51%; 60 mM KCl, 1 mM MgCl2. As to conditions: label: 32P; G4 parallel. As for the experimental part: (§2) The assay also was conducted in a filter-binding format. In such forms of the assay, 0.2 nM of ³²P-labeled quadruplexes were incubated in 50 uL of the binding buffer (12.5 mM Tris-HCl, pH 7.6, 60 mM KCl, 1 mM MgCl2, 0.1 mM EDTA, 5% glycerol, 0.1 mg/mL BSA) for 10 min at 85 C and then for 10 min on ice and mixed with another 50 uL of binding buffer containing increasing amounts of recombinant protein Nucleolin. The protein-quadruplex mixtures were incubated for 30 min at ambient temperature and filtered through mixed cellulose ester membrane filters (Millipore) with gentle suction. The filters were washed twice with […] of binding buffer, dried and OptiPhase ‘SuperMix’ scintillation cocktail (Perkin Elmer) was added to the wells. Radioactivity was assayed with MicroBeta scintillation counter (Perkin Elmer). Binding curves were constructed and apparent Kd's and Bmax's for the complexes were calculated using the GraphPad Prizm software program (GraphPad Software). […]

Data set [3] shares this target. Briefly: filter; Bmax 68%; 60 mM KCl, 1 mM MgCl2. As to conditions: label: 32P; G4 parallel. As for the experimental part:
as §2

For data set [4] the target is unchanged. In words: filter; Bmax 13%; 60 mM KCl, 1 mM MgCl2. As to conditions: label: 32P; G4 antiparallel. As for the experimental part:
as §2

For data set [5] the target is unchanged. In words: EMSA; complex disrupted by compounds A-1, B-1, C-6, C-7; 60 mM KCl, 1 mM MgCl2, room temperature. The note with it: label: 32P; G4. Here is the method: as §1, with “The following assays assessed effects of compounds on interactions between nucleolin and nucleic acid ligands capable of forming quadruplex (QP) and hairpin (HP) secondary structures. Nucleic acid ligands tested were a cMyc QP DNA having nucleotide sequence 5′-[…]-3′ (SEQ ID NO: 176) and a HP pre-rRNA region to which nucleolin binds, having the sequence 5′-[…]-3′ (SEQ ID NO: 177). In” for “In”

The target is the same in data set [6]. In words: EMSA. As to conditions: label: 32P; G4 antiparallel. As for the experimental part:
The following assays assessed effects of compounds on interactions between nucleolin and nucleic acid ligands capable of forming quadruplex (QP) and hairpin (HP) secondary structures. Nucleic acid ligands tested were a cMyc QP DNA having nucleotide sequence 5′-[…]-3′ (SEQ ID NO: 176) and a HP pre-rRNA region to which nucleolin binds, having the sequence 5′-[…]-3′ (SEQ ID NO: 177). In the assays, recombinant nucleolin (˜250 nM), which was fused to maltose binding protein and had the sequence under accession number NM_{—}005381 without the N-terminal acidic stretches domain, was incubated with each of the two ³²P-labeled nucleic acid ligands (10 or 250 nM). Nucleolin and the nucleic acid ligand were incubated in the presence or absence of a test compound of Formula A-1, B-1, C-6 or C-7 in an incubation buffer (12.5 mM Tris, pH 7.6, 60 mM KCl, 1 mM MgCl₂, 0.1 mM EDTA, 1 mM DTT, 5% glycerol, 0.1 mg/ml BSA) for 30 minutes at room temperature. […]
The assay also was conducted using nucleic acid ligands derived from human ribosomal DNA. […] It was determined from these assays that compound A-1, but not Actinomycin D, interfered with nucleolin/nucleic acid ligand interactions. […]

For data set [7] the target is unchanged. In words: filter; Bmax 60%; 60 mM KCl, 1 mM MgCl2. The note with it: label: 32P; G4 mixed. As for the experimental part:
as §2

Data set [8] has the same target. In words: filter; Bmax 100%; 62-mer printed here, Example 6 table prints a shorter sequence under the same name. As to conditions: label: 32P; G4 mixed. Here is the method: as §2

T1 sequence (P19338 284-710, one chain of several): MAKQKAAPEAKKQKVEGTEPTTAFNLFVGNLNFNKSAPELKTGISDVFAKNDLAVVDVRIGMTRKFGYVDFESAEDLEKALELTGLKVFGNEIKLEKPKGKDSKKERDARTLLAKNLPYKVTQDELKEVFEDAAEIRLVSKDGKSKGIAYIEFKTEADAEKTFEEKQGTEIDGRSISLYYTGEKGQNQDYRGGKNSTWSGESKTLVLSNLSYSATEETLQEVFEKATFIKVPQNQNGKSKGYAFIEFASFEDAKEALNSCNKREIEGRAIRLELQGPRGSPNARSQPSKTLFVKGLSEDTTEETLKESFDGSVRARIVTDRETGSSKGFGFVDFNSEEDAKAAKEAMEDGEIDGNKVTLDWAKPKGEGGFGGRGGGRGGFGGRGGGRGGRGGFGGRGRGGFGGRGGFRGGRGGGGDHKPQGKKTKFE

For GTCGTAACGTCGATCAGTTTACGACAT (ssDNA) [RND27], the binding result in data set [1] is “no binding”.

For GGGCGGGGGGGGCGGGGGG (structured_DNA) [6534NT], the affinity in data set [2], expressed as Kd, was 1100 pM.

With GGGTGGCGGGGGGGAGAGGGGGG (structured_DNA) [6960NT], the dissociation constant Kd (usually the constant that tells how readily two partners part at equilibrium) in data set [3] came out at 500 pM.

As for GGGAGGGCGCGCGGGTCGGGG (structured_DNA) [8749NT], the equilibrium dissociation constant (Kd) in data set [4] came out at 1900 pM.

As for TGGGGAGGGTGGGGAGGGTGGGGAAGG (structured_DNA) [cMyc QP DNA], the binding result in data set [5] is “binds”.

For GGGCTGGGTCGGTCGGGCTGGGG (structured_DNA) [10816NT], the binding result in data set [6] is “no binding”.

In turn, GGGTCCGGAAGGGGAAGGGTGCCGGCGGGGAGAGAGGGTCGGGGG (structured_DNA) [7253NT] showed a Kd in data set [7] of 400 pM.

B1: 8511NT (structured_DNA)
DNA: GGGGGCGGGCTCCGGCGGGTGCGGGGGTGGGCGGGCGGGGCCGGGGGTGGGGTCGGCGGGGG
Consider B1, for which the Kd in data set [8] came to 600 pM.

The values are drawn from patent US20070117770, “Human ribosomal DNA (rDNA) and ribosomal RNA (rRNA) nucleic acids and uses thereof” (Cylene Pharmaceuticals, Inc., published 2007).
